Data: the DeepSol protein solubility set

Test: soluble on expression in E. coli; label from the status in PepcDB or PDB records

Row | Sequence | soluble on expression in E. coli
1 | MKEANLLIDLRGEPGINCNGFCKFCYFRKVNKNNPQPFGCRYCQFTVGCDYCMYSVREINGDFIPLPFALMELQSSLLFKRYSKVNLTAGGDVSCYPQLEELCKAINNIGLKIHLGYTSGKGFDNVEIAKNLVDYGVDEVTFSVFSTNPKLRKEWMNDKNAETALKCLRYFCENCEVHCAIIVIPGVNDGEELKKTVSDLVDWGANAVILMRFANSEEQGLILGNAPLIEGIKPHSVEEFKNIVDEIHNEFGDYIRVTGTPLHDPVAGTPFALAKEENSHILERLKDKINGEATIITGNVAYPFLKKIFDETSVNVVKVNKDIADLITAKDLEKLDLKDVKETVFIPPKAFVHDRVAEEILRRDGVDRIVVRGVEQLTLDGEVSGIYTREEALKFEIEAFEELIGMINFFGMKKQ | not soluble
2 | MDAGYFRGANSEQDGRFSDKEKKLLKTMKFEPQLEQKIDLNRCNMDVIKPWITARVNDILGMEDDVVVEYILSQIDDKNLNPKLLQINVTGFLNARRAREFVGDLWNLLIEANASEDGIPASLVNQKMAEMKTNDRDEKGDDREDNDWTNRYKTLSNGRYTGPAREKAVRDDRIPARALSPRKTPPRRNASPGGDGGGGSPAARRGGSAGNRRRSPPRRGSPRRGSPRRDTRRSPPRRRGSPPARGGDRRDRREDRRPVRDEKEREEESRRREIERKKRHEEAELRQKAIASVAARAKSGSPRRRRSPSASKSPPPARRRRSPSQSKSPAPKRAKSRSKSPPAPARRRRSPSASKSPPPAPKRAKSRSKSPPARRRRSPSASKSPPAPRRRRSPSKSRSPAPKREIPPARRRRSPSASKSPPAPKRAKSRSKSPPAPRRRRSPSQSKSPAPRRRRSPSKSPQAPRRRRSPSGSKSRSPRRRRSPAAAPRRRQSPQRRRSPRRRRSPSSSSRSRSPPPPPRRPRQDSEQQAPVAVKSPEMKKRRPNDTDSDVSVDSEAEEERRRKKAKKEKKAAKKHKKEKKSKKHRKRRSPSASESGSESD | soluble
3 | MGHHHHHHSHMGKITFYEDRAFQGRSYETTTDCPNLQPYFSRCNSIRVESGCWMLYERPNYQGQQYLLRRGEYPDYQQWMGLSDSIRSCCLIPQTVSHRLRLYEREDHKGLMMELSEDCPSIQDRFHLSEIRSLHVLEGCWVLYELPNYRGRQYLLRPQEYRRCQDWGAMDAKAGSLRRVVDLY | soluble
4 | MLEKGGIRVIDEKTLEIIVREVLTNLTSDKGTQNQQKTASSSLPKLDPKRDYPLAKNKPELAKSITGKTINEITLQAVREGKVLPDDLKISPETLLAQAEIAEAAGRKQLANNFRRAAELTKVPDKRILEIYNALRPYRSTKEELLAIADELDNAYGAKVCAAFVREAAEVYERRGRLKGME | not soluble
5 | MNMPHKFNQYNKSIPVNKHVIELLENDPSLLPSDIAKQLSISEVEVVKSLPKEMVTMVSGLKTQEILEGLVGFGDVTTIVHSFGSIFEVKAPFPKGKIAHGYYNLMGREGQLHGHLKLDLIQDIALISKPFRGTESHYFGFFNHDGHSVFKIYLGRDKKRQLIPEQVEAFNVLKQEYKLEHHHHHH | soluble
6 | HPEKCSECSYSCSSKAALRIHERIHCTDRPFKCNYCSFDTKQPSNLSKHMKKFHGDM | soluble
7 | AIAETEIHVPVGSPTIRKFQIFVDEHNVTEGAMKLIKELRPGWDPNLIRTKLFTDGTTNKLVGCYVEDCVEDVVLVRVYGNKTELIVDRDNELKSFQVLHANGCAPRLYCTFQNGICYEFMQGRALDTQDVRDPVLLRLIAREMARIHAIHAHNGCIPKPNLWIKMRKYFSLVATEFTEQASNIRIQQEVPSQEVLEQEMMWMKEHLSQLGSPVVLCHNDLLCKNIIHNAKEGHVRFIDYEYSSYNYQAFDIGNHFNEFAGMSEPDYNLYPSREMQLDWLQTYLQAYKLFTKKGEDVSERELETLYVQVNKFALASHFFWGFWALIQAKYSTIEFDFLGYAVLRFNQYFKTKPAVMALEIPK | soluble
8 | MKTIEEIKSTPKTVMKKPELLAPAGNLEKLKIAVHYGADAVFLGGQEYGLRSNADNFTMEEIAEGVEFANRYGAKIYVTTNIIAHDENIEGLESYLRNLEKTGATGIIVADPLIIETCKEVAPKLEIHLSTQQSLSNYKAVEYWKEEGLDRVVLARETGAMEMREMKEKVDIEIEAFIHGAMCIAYSGRCTLSNHMTARDSNRGGCCQSCRWDYELLEVDDNGELDVFYNQGEVTPFAMSPKDLKLIESIPQMMDIGVDSLKIEGRMKSIHYIATVVSVYRKVIDAYAADPDNFKINPEWLIELDKCANRDTAPAFFEGTPGYEEQMFGQQQSKKSSFDFCGLVLDYNEDTKIATIQQRNNFKPGQEIEFFGPEIETFTQVVEAIYDEEGNSLDAARHPLQIVQIKVDRPIYPNNMMRKEIG | not soluble
9 | GPGSMLTLRKQTLPVATATLLLQRRGVEYWGSSVTGRTQPYAQGDLIPRVDNMRHVVSKSSSAAANLTGSNLGVAYDSDTIFSVAGYSRAEKEHYRPLRGIARYKIEPMAESDTVAAQGLLEQAEMSKSISFVVSWWGGVLKDFPSLKKVCDDTFKEEFTSFYKSALSVAHDDAAVKALAVPFVRRQMQEHYISFPMFWRIAEKLADAIEKVPQMQKPARSVSRIAVERVTKIALNTIADEPWALDEMTSPLLFDVSNFRAWHEAGNW | not soluble
10 | MELTAVPATQFSSVQLTDILNACFEAYLVPVTQSVEGFVQRFSAEGMSLVDSRVWLAGDEPAAIAIVARRGSAARLAAFALRPAWRGKGLGRKLMQELLMLLQQQGIETVYLEVIRDNHAAVALYQSLGFTRRYGLCGYLSTELLAPVPGVLQLYPTLSLLRRAIEESNSQLPWLLDPLTFATLPCQVVTLEQRAFAVLTTAGSRPVLSFLWVEPAARRQGLARELLMALAQQFPGIGTSVTVPETFTPLFAAAGYTPLSLQQYEMTMDLADAKSA | not soluble
11 | MASECVDENSKPWMRVTVSCALLPEVLKQGAEAGGAVKLTGNPSEQSSEDGSHHCSSNFQNSPVTSDLSVLDASPCGLPAEKRKPPHRETSISSNASQSEREIAPTATRRLSPKPETATLSPSESSSLTAATLSNCSSRVQSSSDEKIGNCPSTSACSVSQTTASSEAPSWLSSGASTAQVLSERRGSIEEQPAPETSAAAVRVSRSSSDSENLFASCSASLRNLEPDDISDPENEAAAPACAETGASRAQDAAAVRADAENLGEGESHMETASTRAESLAKDAISSKVSRRGSAHTSSDASGQCQDALPSVGEGKPGEMNGREEDGEAEKPEASAESLQGSDGQANESEAPKPGGGRVDAKMRAKFKREFVRSWVDINRAPSWPPIKKNKYLSSDWKRVDLRTAAGEIRVETKKHRLFLNDLCFLFDGVYTQKSTLGRKAGLGLFCERPEGLHKGQIITEFVGWLVDRDLAESYRKQRTASHIVAVQKGFLYIDGAKEPAYGMGGGSFANDGSEFLGGPGNNAQFYHWFDDELGRTRVFLRATADIKNGEEIFVPYHKTYWVDNFEEQAENCPDAFKQRKLEQLRRRYKNPEFVHIPHREEVAMREREEAERRKRDKEESEKKKAAAKQPRCPVKRPCSAYLLFSVARRKELLKACGILSKGDDEPASQQVSESPEVPREGQRKRRASSASQAAAPVPAAANKRRKAEKDEPSSPEETKRGQVVAAAGLKRGAARPACVGDETAQKLAGWLAKDGAANVRTLCAELTREVAREWGNMRPEEKKPWEQLAEKEKIRYAKAVRTWREKLKKKKSGRETATRKRKVPCSRKGHGTEKGEKAGKVKPQADTSPREAAPEGTETRDHEDVQAGAKDRAATQKER | soluble
12 | MGSDKIHHHHHHMNAPFVPSRVVARLADPGERPAVARFLDAHPDATVFHRAAWLDAVEQSTGHRTHVLVSGQDEAIRAVLPLHEVHSPLFGRALVSTGFGVGGGVVGKGDAALFAAAQELAVRLNCPTVELRGGPLPQGDGWHVKTDSHAGFVTPLAADDEAQLLAIPRKQRAEVRRGLGYGMEVRTGRSPEDRAMHHAVYAQSVRNLGTPVFPRRLFDAVLDGFGDDADILTVLHEGRPLASVLSLYHRGAVMPYWGGGTFEARAMRANDVMYYALMNHARARGCDRFDFGRSKVDSGAYHFKRNWGFAPQPLSYAHWTADGQAPRDVNPLSPRYRARIALWQKLPLAVANRLGPIIANGLA | not soluble
13 | RLHEILASGVYANHPSPLTIALGKDISGRPVVSDLAKMPHALVAGTTGSGKSVAINAIILSLVYKASPDNVRLILIDPKMLELSVYDGIPHLLTPVVTDMRDAASALNWCVAEMERRYKLMSALGVRNLAGYNQKVREAVKNEEPLTNPLNPVPGSPELLEEMPLIVVVIDELADLMMIVGKKVEKLIARLAQKARAAGIHLLLATQRPSV | not soluble
14 | MGSDKIHHHHHHMIKEFNATVRYLESVLESEIDEREFLRISGYSVPMFSRLFSILTDMSLSEYVRLRKLTRAAMDIREGQAKIIDIAFKYGYESSDSFAFAFKQFHQISPSQVRKGLPFKVLLPLQLSLTIQGGKEMDVRIEKKAGFTVAGLLRTAISNEVCPQVWEDLFKNHTYEELAALGSGQSFGVCTLAQADETINYMAAYDVTDSEKATKLGLELLDVHEADYAIFTLIGPVPQSIHAGWRYALETFFPEHGYRHSGAPDFEYYFEGDMSSPDYQMELWIPIVKA | not soluble
15 | ECGHISVSAPIVHLGDPITASCIIKQNCSHLDPEPQILWRLGAELQPGGRQQRLSDGTQESIITLPHLNHTQAFLSCSLNWGNSLQILDQVELRAGYPPAIPHNLSCLMNLTTSSLICQWEPGPETHLPTSFTLKSFKSRGNCQTQGDSILDCVPKDGQSHCSIPRKHLLLYQNMGIWVQAENALGTSMSPQLCLDPMDVVKLEPPMLRTMDPSPEAAPPQAGCLQLSWEPWQPGLHINQKCELRHKPQRGEASWALVGPLPLEALQYELCGLLPATAYTLQIRCIRWPLPGHWSDWSPSLELRTTERAAAPR | soluble
16 | MGSDKIHHHHHHMLSIERQCQCMQLLIETFTVPIEIRALKTANIYRLETDDSAFLIDSGMSDNSIKSIEQNLKKIDFVFITHLHIDHLGGVLYLHEKYGIPAYMNHLDLDLIMNANEDRDGYIKRHSEIFRVNGVPPSMVEEIITMHPVIRYFDYYSKLDFVQDYRKINASGIKFVEVPGHSPGSTAVYIEDSRDLFAGDHILDRITPNIAVYGDEDDLGNYLESLEKVRAMKVDRIFPGHGNVITEPKIRIDDIEKHHHDRMRAIIAALKSPKTAYEVARDITWSKGRKMDTMNFMERNFAILETVSHLKHMDRKGMVRRIEENGIIKYSYIQ | not soluble
17 | MHHHHHHSSGLVPRGSGMKETAAAKFERQHMDSPDLGTDDDDKAMAGTPSKPAEPIGPVFTKLKPWQIPKRDWFDKDFLFGASTSAYQIEGAWNEDGKGPSTWDHFCHTYPERISDMTNGDVAANSYHLYEEDVKALKDMGMKVYRFSISWSRILPDGTGKVNQAGIDYYNKLINSLIDNDIVPYVTIWHWDTPQALEDKYGGFLNRQIVDDYKQFAEVCFKNFGDRVKNWFTFNEPHTYCCFSYGEGIHAPGRCSPGMDCAVPEGDSLREPYTAGHHILLAHAEAVQLFKARYNMHGDSKIGMAFDVMGYEPYQDSFLDDQARERSIDYNMGWFLEPVVRGDYPFSMRSLIGDRLPMFTKEEQEKLASSCDIMGLNYYTSRFSKHVDMSPDFTPTLNTDDAYASSETTGSDGNDIGPITGTYWIYMYPKGLTDLLLIMKEKYGNPPVFITENGIADVEGDESMPDPLDDWKRLDYLQRHISAVKDAIDQGADVRGHFTWGLIDNFEWSLGYSSRFGLVYIDKNDGNKRKLKKSAKWFSKFNSVPKPLLKTTNNNATMTAASVSV | soluble
18 | MEQKTENKWPLQFEVIEEIKQVGRWSAPSWRLGDIHLYEKVNETQDNVSLFERDLEIFRDERTDYRFNLSSQDPKLFFAFENDNDQLTPVMITASQSMIGQYMDGDYLVLSTAMPLPMQAWLEAYIGKHGELLEVRKKKRKGAGRASEQLPK | not soluble
